Measurements as given in paper PMC5845890, “Pathophysiological Consequences of Neuronal α-Synuclein Overexpression: Impacts on Ion Homeostasis, Stress Signaling, Mitochondrial Integrity, and Electrical Activity” (Frontiers in Molecular Neuroscience, 2018).

Target: T1, Soluble domain (residues 1-209) of human Bcl-Xl (human, UniProt Q07817-1 1-209)
T1 construct: residues left at the N-terminus after thrombin cleavage of the 6XHis tag; Bcl-Xl, human, soluble domain, residues 1-209; 15N-labelled for the titration with peptides; BMRB 19521 (Follis et al., 2014) was used only for the chemical shift assignment; also called 15N-Bcl-Xl; source: BL21 E. coli (pET15b), purified (nickel-sepharose, thrombin digestion, reverse IMAC, size exclusion chromatography); …
Assay: NMR titration; 15N-Bcl-Xl with synthetic α-Syn (1-26) peptides; 1H-15N HSQC at 298 K; Hepes 25 mM pH 7.0, NaCl 50 mM, 10% D2O, 1 mM DTT; ΔδN against ligand concentration fitted by a single binding model; Kd averaged over residues 94, 120, 134 and 196 of Bcl-Xl
Settings: both partners purified

T1 sequence (Q07817 other isoform, or with tags, fused parts or gaps): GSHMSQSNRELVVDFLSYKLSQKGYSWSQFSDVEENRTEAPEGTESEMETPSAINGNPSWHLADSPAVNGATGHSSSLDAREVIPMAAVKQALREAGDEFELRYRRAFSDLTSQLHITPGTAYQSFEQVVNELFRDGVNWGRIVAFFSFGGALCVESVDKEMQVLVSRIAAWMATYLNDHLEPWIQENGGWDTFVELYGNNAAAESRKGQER

B1: N-terminal acetylated alpha-synuclein peptide 1-26 (peptide)
peptide: not shown
modifications: acetyl group at the N-terminus
notes: α-Synuclein, human, residues 1-26; also called α-Syn (1-26) peptide with an acetyl group at the N-terminus; source: synthetic peptide (Fmoc solid-phase synthesis, reversed-phase HPLC)
- Kd: 1950 ± 560 µM
